# Data reported in patent EP4424325A1 (JCR Pharmaceuticals Co., Ltd., dated 2024).
# T1: recombinant monkey TfR, extracellular region of cynomolgus monkey transferrin receptor with a histidine tag … (cynomolgus monkey (Macaca fascicularis), UniProt Q5RDH6 89-760 (Pongo abelii entry))
# T1 construct: also called monkey TfR-ECD(Histag); cynomolgus monkey TfR; not shown: N-terminal histidine tag
# T1 chain: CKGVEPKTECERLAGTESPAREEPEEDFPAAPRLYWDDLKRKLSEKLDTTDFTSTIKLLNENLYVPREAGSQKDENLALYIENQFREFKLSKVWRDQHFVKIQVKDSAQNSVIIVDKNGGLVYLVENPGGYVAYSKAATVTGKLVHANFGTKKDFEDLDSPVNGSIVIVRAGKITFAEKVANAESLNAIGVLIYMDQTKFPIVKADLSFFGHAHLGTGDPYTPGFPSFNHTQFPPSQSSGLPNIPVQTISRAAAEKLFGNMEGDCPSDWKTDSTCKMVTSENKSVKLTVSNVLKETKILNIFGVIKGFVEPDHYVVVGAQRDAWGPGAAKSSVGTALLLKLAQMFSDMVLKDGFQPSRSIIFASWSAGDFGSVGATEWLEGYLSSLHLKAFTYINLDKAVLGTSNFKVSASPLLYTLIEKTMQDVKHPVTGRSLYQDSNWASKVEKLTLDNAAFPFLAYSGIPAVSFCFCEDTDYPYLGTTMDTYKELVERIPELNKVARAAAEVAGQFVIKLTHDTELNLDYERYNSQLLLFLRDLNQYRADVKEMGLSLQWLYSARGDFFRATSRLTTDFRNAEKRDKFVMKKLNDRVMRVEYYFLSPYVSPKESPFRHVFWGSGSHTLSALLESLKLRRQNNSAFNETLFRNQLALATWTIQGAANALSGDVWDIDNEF
# B1: VHH5-GS3-hIDS (other)
# chain: QVQLVESGGGLVQPGGSLRLSCAASGSIFDIYVMRWYRQAPGKGLEWVASIYDGGRNDYDNVVKGRFTISRDNSKNTLYLQMNSLRAEDTAVYFCNVLTYAGRPYWGQGTQVTVSSGGGGSGGGGSGGGGSSETQANSTTDALNVLLIIVDDLRPSLGCYGDKLVRSPNIDQLASHSLLFQNAFAQQAVCAPSRVSFLTGRRPDTTRLYDFNSYWRVHAGNFSTIPQYFKENGYVTMSVGKVFHPGISSNHTDDSPYSWSFPPYHPSSEKYENTKTCRGPDGELHANLLCPVDVLDVPEGTLPDKQSTEQAIQLLEKMKTSASPFFLAVGYHKPHIPFRYPKEFQKLYPLENITLAPDPEVPDGLPPVAYNPWMDIRQREDVQALNISVPYGPIPVDFQRKIRQSYFASVSYLDTQVGRLLSALDDLQLANSTIIAFTSDHGWALGEHGEWAKYSNFDVATHVPLIFYVPGRTASLPEAGEKLFPYLDPFDSASQLMEPGRQSMDLVELVSLFPTLAGLAGLQVPPRCPVPSFHVELCREGKNLLKHFRFRDLEEDPYLPGNPRELIAYSQYPRPSDIPQWNSDKPSLKDIKIMGYSIRTIDYRYTVWVGFNPDEFLANFSDIHAGELYFVDSDPLQDHNMYNDSQGGDLFQLLMP
# notes: VHH-enzyme fusion; also called VHH5-GS3-hI2S
# B2: VHH6-GS3-hIDS (other)
# chain: QVQLVESGGGLVQPGGSLRLSCAASGSIFDIYVMRWYRQAPGKGLEWVASIYAGGRNDYDNVVKGRFTISRDNSKNTLYLQMNSLRAEDTAVYFCNVLTYAGRPYWGQGTQVTVSSGGGGSGGGGSGGGGSSETQANSTTDALNVLLIIVDDLRPSLGCYGDKLVRSPNIDQLASHSLLFQNAFAQQAVCAPSRVSFLTGRRPDTTRLYDFNSYWRVHAGNFSTIPQYFKENGYVTMSVGKVFHPGISSNHTDDSPYSWSFPPYHPSSEKYENTKTCRGPDGELHANLLCPVDVLDVPEGTLPDKQSTEQAIQLLEKMKTSASPFFLAVGYHKPHIPFRYPKEFQKLYPLENITLAPDPEVPDGLPPVAYNPWMDIRQREDVQALNISVPYGPIPVDFQRKIRQSYFASVSYLDTQVGRLLSALDDLQLANSTIIAFTSDHGWALGEHGEWAKYSNFDVATHVPLIFYVPGRTASLPEAGEKLFPYLDPFDSASQLMEPGRQSMDLVELVSLFPTLAGLAGLQVPPRCPVPSFHVELCREGKNLLKHFRFRDLEEDPYLPGNPRELIAYSQYPRPSDIPQWNSDKPSLKDIKIMGYSIRTIDYRYTVWVGFNPDEFLANFSDIHAGELYFVDSDPLQDHNMYNDSQGGDLFQLLMP
# notes: VHH-enzyme fusion; also called VHH6-GS3-hI2S
# B3: VHH5-Tandem-GS3-hIDS (other)
# chain: QVQLVESGGGLVQPGGSLRLSCAASGSIFDIYVMRWYRQAPGKGLEWVASIYDGGRNDYDNVVKGRFTISRDNSKNTLYLQMNSLRAEDTAVYFCNVLTYAGRPYWGQGTQVTVSSGSQVQLVESGGGLVQPGGSLRLSCAASGSIFDIYVMRWYRQAPGKGLEWVASIYDGGRNDYDNVVKGRFTISRDNSKNTLYLQMNSLRAEDTAVYFCNVLTYAGRPYWGQGTQVTVSSGGGGSGGGGSGGGGSSETQANSTTDALNVLLIIVDDLRPSLGCYGDKLVRSPNIDQLASHSLLFQNAFAQQAVCAPSRVSFLTGRRPDTTRLYDFNSYWRVHAGNFSTIPQYFKENGYVTMSVGKVFHPGISSNHTDDSPYSWSFPPYHPSSEKYENTKTCRGPDGELHANLLCPVDVLDVPEGTLPDKQSTEQAIQLLEKMKTSASPFFLAVGYHKPHIPFRYPKEFQKLYPLENITLAPDPEVPDGLPPVAYNPWMDIRQREDVQALNISVPYGPIPVDFQRKIRQSYFASVSYLDTQVGRLLSALDDLQLANSTIIAFTSDHGWALGEHGEWAKYSNFDVATHVPLIFYVPGRTASLPEAGEKLFPYLDPFDSASQLMEPGRQSMDLVELVSLFPTLAGLAGLQVPPRCPVPSFHVELCREGKNLLKHFRFRDLEEDPYLPGNPRELIAYSQYPRPSDIPQWNSDKPSLKDIKIMGYSIRTIDYRYTVWVGFNPDEFLANFSDIHAGELYFVDSDPLQDHNMYNDSQGGDLFQLLMP
# notes: Two copies of peptide 5 in tandem, fused to hIDS; also called VHH5-Tandem-GS3-hI2S
# B4: hTfR affinity peptide 1 (VHH)
# VHH: QVQLVESGGGLVHPGGSLRLSCVASGTSFSLNVVTWYRQALGKQREWVATINQSEAPTYADSVKGRFTISRDGAKNTVYLQMNSLVTEDTALYYCYDRYNEIRGQGTQVTVSS
# notes: Expressed in CHO-S cells, purified on Anti-FLAG M1 agarose; also called clone 1; VHH(1)
# B5: hTfR affinity peptide 2 (VHH)
# VHH: QVQLVESGGGLVHPGGSLSLSCAASGTSFSFNTVTWYRQALGKQREWVATINGSGAPTYADSVKGRFTISRDGAKNTVYLLMNSLVTEDTALYYCYDRYNEIRGQGTQVTVSS
# notes: The tag is stated only for peptide 1; Peptides 2 to 5 were obtained 'in the same manner'; also called clone 2; VHH(2)
# B6: hTfR affinity peptide 4 (VHH)
# VHH: QVQLVESGGGLVQAGASLRLSCAASGRTDGIDRMAWFHQAPGEGREFVAGINKRGGGVDYAPGVKGRFTLSLDSDKNTLYLQMNNLRLEDTGVYSCAVGSGRIIVKSDTWGQGTQVTVSS
# notes: The tag is stated only for peptide 1; Peptides 2 to 5 were obtained 'in the same manner'; also called clone 4; VHH(4)
# B7: VHH3-GS3-hSGSH (other)
# chain: DYKDDDDKQVQLVESGGGLVQPGESLRLSCAASGSIFDIYVMRWYRQAPGNQREWVASIYDGGRNDYDNVVKGRFTISRDNAKNTVHLQMNSLKPEDTAVYFCNVLTYAGRPYWGQGTQVTVSSGGGGSGGGGSGGGGSRPRNALLLLADDGGFESGAYNNSAIATPHLDALARRSLLFRNAFTSVSSCSPSRASLLTGLPQHQNGMYGLHQDVHHFNSFDKVRSLPLLLSQAGVRTGIIGKKHVGPETVYPFDFAYTEENGSVLQVGRNITRIKLLVRKFLQTQDDRPFFLYVAFHDPHRCGHSQPQYGTFCEKFGNGESGMGRIPDWTPQAYDPLDVLVPYFVPNTPAARADLAAQYTTVGRMDQGVGLVLQELRDAGVLNDTLVIFTSDNGIPFPSGRTNLYWPGTAEPLLVSSPEHPKRWGQVSEAYVSLLDLTPTILDWFSIPYPSYAIFGSKTIHLTGRSLLPALEAEPLWATVFGSQSHHEVTMSYPMRSVQHRHFRLVHNLNFKMPFPIDQDFYVSPTFQDLLNRTTAGQPTGWYKDLRHYYYRARWELYDRSRDPHETQNLATDPRFAQLLEMLRDQLAKWQWETHDPWVCAPDGVLEEKLSPQCQPLHNEL
# notes: VHH-enzyme fusion; Purified on anti-FLAG M1 gel; also called VHH-GS3-hSGSH
# B8: hTfR affinity peptide 5 (VHH)
# VHH: QVQLVESGGGLVQPGGSLRLSCAASGSIFDIYVMRWYRQAPGKGLEWVASIYDGGRNDYDNVVKGRFTISRDNSKNTLYLQMNSLRAEDTAVYFCNVLTYAGRPYWGQGTQVTVSS
# notes: Same CDRs as peptide 3; The tag is stated only for peptide 1; Peptides 2 to 5 were obtained 'in the same manner'; also called clone 5; VHH(5)
# B9: hTfR affinity peptide 3 (VHH)
# VHH: QVQLVESGGGLVQPGESLRLSCAASGSIFDIYVMRWYRQAPGNQREWVASIYDGGRNDYDNVVKGRFTISRDNAKNTVHLQMNSLKPEDTAVYFCNVLTYAGRPYWGQGTQVTVSS
# notes: The tag is stated only for peptide 1; Peptides 2 to 5 were obtained 'in the same manner'; also called clone 3; VHH(3)
# B10: hTfR affinity peptide 6 (VHH)
# VHH: QVQLVESGGGLVQPGGSLRLSCAASGSIFDIYVMRWYRQAPGKGLEWVASIYAGGRNDYDNVVKGRFTISRDNSKNTLYLQMNSLRAEDTAVYFCNVLTYAGRPYWGQGTQVTVSS
# notes: One amino acid of CDR2 of peptide 5 is substituted; also called VHH6
# Legend:
# [1] = target: T2, recombinant hTfR containing the extracellular region of hTfR (coated on the ELISA plate in Example 16) (human, UniProt P02786 89-760); test: ELISA, recombinant hTfR coated on plate, detection with anti-hIDS monoclonal antibody
# T2 construct: That contradicts 'extracellular region' (residue 89 to the C-terminus elsewhere); also called human transferrin receptor
# [2] = target: T3, recombinant hTfR, extracellular region of human transferrin receptor with a histidine tag added at the … (human, UniProt P02786 89-760); test: BLI (OctetRED96), His-tagged TfR ECD on Ni-NTA sensor, peptide in solution
# T3 construct: also called hTfR-ECD(Histag); human TfR; not shown: N-terminal histidine tag
# Target sequence in this assay (P02786 89-760): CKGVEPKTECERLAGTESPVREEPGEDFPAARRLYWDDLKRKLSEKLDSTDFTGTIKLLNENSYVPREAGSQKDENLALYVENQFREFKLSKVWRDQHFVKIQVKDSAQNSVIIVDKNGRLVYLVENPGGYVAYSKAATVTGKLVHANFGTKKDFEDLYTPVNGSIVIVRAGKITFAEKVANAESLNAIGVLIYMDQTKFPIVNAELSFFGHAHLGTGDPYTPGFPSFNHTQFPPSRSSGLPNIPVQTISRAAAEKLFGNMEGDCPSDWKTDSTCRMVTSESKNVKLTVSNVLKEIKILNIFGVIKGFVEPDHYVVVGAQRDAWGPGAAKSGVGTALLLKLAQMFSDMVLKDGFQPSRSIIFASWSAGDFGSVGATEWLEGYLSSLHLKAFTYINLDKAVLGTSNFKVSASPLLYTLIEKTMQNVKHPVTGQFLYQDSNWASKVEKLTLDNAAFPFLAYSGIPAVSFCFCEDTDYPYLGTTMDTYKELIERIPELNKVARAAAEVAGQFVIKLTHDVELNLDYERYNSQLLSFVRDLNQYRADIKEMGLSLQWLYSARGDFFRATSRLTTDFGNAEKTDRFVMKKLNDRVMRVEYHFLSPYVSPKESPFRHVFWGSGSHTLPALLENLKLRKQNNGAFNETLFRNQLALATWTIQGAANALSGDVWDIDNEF
# [3] = target: T1, recombinant monkey TfR, extracellular …; test: ratio calculated from the measured KD values
# [4] = target: T1, recombinant monkey TfR, extracellular …; test: BLI (OctetRED96), His-tagged TfR ECD on Ni-NTA sensor, peptide in solution
# [5] = target: T3, recombinant hTfR, extracellular region …; test: BLI (OctetRED96), method of Example 7, His-tagged TfR ECD on Ni-NTA sensor
# [6] = target: T1, recombinant monkey TfR, extracellular …; test: as above
Binder,EC50 [1],Kd [2],koff [2],kon [2],relative value of KD with monkey TfR (KD with hTfR taken as 1) [3],Kd [4],koff [4],kon [4],further results
B1,1.09 nM,–,–,–,–,–,–,–,–
B2,22.7 nM,–,–,–,–,–,–,–,–
B3,0.077 nM,–,–,–,–,–,–,–,–
B4,–,97 nM,0.0271 s⁻¹,280000 M⁻¹ s⁻¹,1.06,–,–,–,–
B5,–,61.4 nM,0.0146 s⁻¹,237000 M⁻¹ s⁻¹,2.36,–,–,–,–
B6,–,11.9 nM,0.0027 s⁻¹,227000 M⁻¹ s⁻¹,0.83,9.92 nM,0.00316 s⁻¹,318000 M⁻¹ s⁻¹,–
B7,–,–,–,–,–,–,–,–,Kd [5]: < 0.001 nM; koff [5]: < 1e-07 s⁻¹; kon [5]: 423000 M⁻¹ s⁻¹; Kd [6]: 0.00116 nM; koff [6]: 4.81e-07 s⁻¹; kon [6]: 417000 M⁻¹ s⁻¹
B8,–,13.8 nM,0.00562 s⁻¹,407000 M⁻¹ s⁻¹,1.27,17.5 nM,0.00695 s⁻¹,396000 M⁻¹ s⁻¹,–
B9,–,10.5 nM,0.006 s⁻¹,571000 M⁻¹ s⁻¹,1.02,10.7 nM,0.0123 s⁻¹,1.15e+06 M⁻¹ s⁻¹,–
B10,–,137 nM,0.0586 s⁻¹,428000 M⁻¹ s⁻¹,–,–,–,–,–
